Experimental data reported in US20110129470A1.

Target: CD33 (cell surface antigen on HL60 and NB4 cells) (UniProt P20138)
Experiment: cell-based or functional assay

Sequence of HuM195-dCK conjugate (wild type dCK chemically conjugated to the humanized anti-CD33 monoclonal antibody HuM195) (B2R8V6 whole entry): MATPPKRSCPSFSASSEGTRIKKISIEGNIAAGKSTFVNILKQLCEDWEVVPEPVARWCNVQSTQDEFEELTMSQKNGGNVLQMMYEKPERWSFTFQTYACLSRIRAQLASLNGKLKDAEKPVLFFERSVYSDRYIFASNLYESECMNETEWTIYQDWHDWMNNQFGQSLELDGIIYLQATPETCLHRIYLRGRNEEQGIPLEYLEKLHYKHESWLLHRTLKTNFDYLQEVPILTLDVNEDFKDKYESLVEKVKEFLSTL
Sequence of CD33 (cell surface antigen on HL60 and NB4 cells) (P20138 18-364 limits assumed): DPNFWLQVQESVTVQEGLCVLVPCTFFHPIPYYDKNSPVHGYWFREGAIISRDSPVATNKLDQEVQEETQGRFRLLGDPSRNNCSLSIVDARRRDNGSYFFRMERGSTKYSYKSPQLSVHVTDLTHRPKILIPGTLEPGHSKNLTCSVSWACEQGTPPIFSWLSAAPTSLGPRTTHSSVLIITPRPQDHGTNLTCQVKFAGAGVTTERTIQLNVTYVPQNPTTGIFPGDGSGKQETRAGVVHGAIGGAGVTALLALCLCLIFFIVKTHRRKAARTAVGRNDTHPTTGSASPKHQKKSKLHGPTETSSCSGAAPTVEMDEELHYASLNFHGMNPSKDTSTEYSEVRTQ

## HuM195-dCK conjugate (wild type dCK chemically conjugated to the humanized anti-CD33 monoclonal antibody HuM195)
  additional cell killing over AraC alone (Annexin V and propidium iodide apoptosis assay), HL60 cells: 20%
  cell death (Annexin V and propidium iodide apoptosis assay), HL60 cells, conjugate in combination with AraC 1 µM: 70%
  cell killing (apoptosis assay), NB4 cells, conjugate with AraC 250 nM: 65%
